Measured values taken from patent US20180360932A1 (OPKO BIOLOGICS, published 2018).

Tests used:
Experiment in all cases: cell-based or functional assay
[1] = target: MOD-5014 (FVIIa-CTP3, activated Factor VII-CTP-CTP-CTP) (human) (UniProt P08709)
[2] = target: NovoSeven (commercial recombinant human FVIIa) (human) (UniProt P08709)
[3] = target: Factor X (UniProt P00742)
Sequence of Factor X (P00742 41-488 limits assumed): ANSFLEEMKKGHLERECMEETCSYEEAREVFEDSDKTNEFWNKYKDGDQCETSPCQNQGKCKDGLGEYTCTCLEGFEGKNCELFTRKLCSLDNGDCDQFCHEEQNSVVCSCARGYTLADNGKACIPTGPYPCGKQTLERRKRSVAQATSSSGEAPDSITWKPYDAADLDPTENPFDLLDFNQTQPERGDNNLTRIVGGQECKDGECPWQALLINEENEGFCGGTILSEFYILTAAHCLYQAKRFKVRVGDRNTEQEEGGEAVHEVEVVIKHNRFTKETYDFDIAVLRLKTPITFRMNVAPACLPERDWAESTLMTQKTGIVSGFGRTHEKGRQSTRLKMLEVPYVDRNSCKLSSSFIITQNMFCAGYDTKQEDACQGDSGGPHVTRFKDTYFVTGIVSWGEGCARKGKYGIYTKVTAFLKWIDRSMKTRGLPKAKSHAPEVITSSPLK

Sequence of Tissue Factor Pathway Inhibitor (TFPI) (P10646 29-304 limits assumed): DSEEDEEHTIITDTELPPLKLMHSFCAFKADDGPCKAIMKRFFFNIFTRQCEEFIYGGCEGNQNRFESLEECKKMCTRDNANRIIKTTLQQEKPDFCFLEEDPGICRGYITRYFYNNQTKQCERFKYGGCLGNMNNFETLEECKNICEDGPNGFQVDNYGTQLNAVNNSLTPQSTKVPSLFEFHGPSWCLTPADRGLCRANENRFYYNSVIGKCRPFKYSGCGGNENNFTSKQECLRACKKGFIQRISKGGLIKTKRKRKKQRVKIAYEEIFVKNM

Tissue Factor Pathway Inhibitor (TFPI) (from UniProt P10646 29-304)
% Inhibition of clotting activity, TFPI 0.625 ng/mL [1]: 15%
% Inhibition of clotting activity, TFPI 6.25 ng/mL [1]: 15%
% Inhibition of clotting activity, TFPI 62.5 ng/mL [1]: 29%
% Inhibition of clotting activity, TFPI 625 ng/mL [1]: 80%
% Inhibition of clotting activity, TFPI 1250 ng/mL [1]: 89%
Activity (mU/mL), clotting assay, TFPI 0 ng/mL (no inhibitor) [1]: 66.8 mU/mL
Activity (mU/mL), clotting assay, TFPI 0.625 ng/mL [1]: 56.7 mU/mL
Activity (mU/mL), clotting assay, TFPI 6.25 ng/mL [1]: 56.7 mU/mL
Activity (mU/mL), clotting assay, TFPI 62.5 ng/mL [1]: 47.4 mU/mL
Activity (mU/mL), clotting assay, TFPI 625 ng/mL [1]: 13.2 mU/mL
Activity (mU/mL), clotting assay, TFPI 1250 ng/mL [1]: 7.3 mU/mL
FX activation by MOD-5014 (0.7 ng/ml) + 1 U/µl heparin, TFPI 0.002048 ng/ml [1]: 1.27
FX activation by MOD-5014 (0.7 ng/ml) + 1 U/µl heparin, TFPI 0.010240 ng/ml [1]: 1.29
FX activation by MOD-5014 (0.7 ng/ml) + 1 U/µl heparin, TFPI 0.051200 ng/ml [1]: 1.35
FX activation by MOD-5014 (0.7 ng/ml) + 1 U/µl heparin, TFPI 1.28 ng/ml [1]: 1.26
FX activation by MOD-5014 (0.7 ng/ml) + 1 U/µl heparin, TFPI 6.40 ng/ml [1]: 1.16
FX activation by MOD-5014 (0.7 ng/ml) + 1 U/µl heparin, TFPI 32.00 ng/ml [1]: 0.915
FX activation by MOD-5014 (0.7 ng/ml) + 1 U/µl heparin, TFPI 160.00 ng/ml [1]: 0.539
FX activation by MOD-5014 (0.7 ng/ml) + 1 U/µl heparin, TFPI 800.00 ng/ml [1]: 0.32
FX activation by MOD-5014 (0.7 ng/ml) + 1 U/µl heparin, TFPI 4000.00 ng/ml [1]: 0.115
FX activation by MOD-5014 (0.7 ng/ml) + 1 U/µl heparin, TFPI 20000.00 ng/ml [1]: 0.15
FX activation by MOD-5014 (0.7 ng/ml), Control [1]: 1.37
FX activation by MOD-5014 (4 ng/ml), Control (no TFPI) [1]: 1.58
FX activation by MOD-5014 (4 ng/ml), TFPI 0.002048 ng/ml [1]: 1.65
FX activation by MOD-5014 (4 ng/ml), TFPI 0.010240 ng/ml [1]: 1.64
FX activation by MOD-5014 (4 ng/ml), TFPI 0.051200 ng/ml [1]: 1.6
FX activation by MOD-5014 (4 ng/ml), TFPI 0.2560 ng/ml [1]: 1.62
FX activation by MOD-5014 (4 ng/ml), TFPI 1.28 ng/ml [1]: 1.56
FX activation by MOD-5014 (4 ng/ml), TFPI 6.40 ng/ml [1]: 1.54
FX activation by MOD-5014 (4 ng/ml), TFPI 32.00 ng/ml [1]: 1.47
FX activation by MOD-5014 (4 ng/ml), TFPI 160.00 ng/ml [1]: 1.14
FX activation by MOD-5014 (4 ng/ml), TFPI 800.00 ng/ml [1]: 0.836
FX activation by MOD-5014 (4 ng/ml), TFPI 4000.00 ng/ml [1]: 0.38
FX activation by MOD-5014 (4 ng/ml), TFPI 20000.00 ng/ml [1]: 0.17
O.D, FX activation by MOD-5014 (0.69 ng/ml), Control (no TFPI) [1]: 1.51 O.D
O.D, FX activation by MOD-5014 (0.69 ng/ml), TFPI 0.002048 ng/ml [1]: 1.48 O.D
O.D, FX activation by MOD-5014 (0.69 ng/ml), TFPI 0.010240 ng/ml [1]: 1.45 O.D
O.D, FX activation by MOD-5014 (0.69 ng/ml), TFPI 0.051200 ng/ml [1]: 1.45 O.D
O.D, FX activation by MOD-5014 (0.69 ng/ml), TFPI 0.2560 ng/ml [1]: 1.46 O.D
O.D, FX activation by MOD-5014 (0.69 ng/ml), TFPI 1.28 ng/ml [1]: 1.39 O.D
O.D, FX activation by MOD-5014 (0.69 ng/ml), TFPI 6.40 ng/ml [1]: 1.38 O.D
O.D, FX activation by MOD-5014 (0.69 ng/ml), TFPI 32.00 ng/ml [1]: 1.36 O.D
O.D, FX activation by MOD-5014 (0.69 ng/ml), TFPI 160.00 ng/ml [1]: 1.11 O.D
O.D, FX activation by MOD-5014 (0.69 ng/ml), TFPI 800.00 ng/ml [1]: 1.01 O.D
O.D, FX activation by MOD-5014 (0.69 ng/ml), TFPI 4000.00 ng/ml [1]: 0.691 O.D
O.D, FX activation by MOD-5014 (0.69 ng/ml), TFPI 20000.00 ng/ml [1]: 0.346 O.D
% Inhibition of clotting activity, TFPI 0.625 ng/mL [2]: 25%
% Inhibition of clotting activity, TFPI 6.25 ng/mL [2]: 24%
% Inhibition of clotting activity, TFPI 62.5 ng/mL [2]: 38%
% Inhibition of clotting activity, TFPI 625 ng/mL [2]: 87%
% Inhibition of clotting activity, TFPI 1250 ng/mL [2]: 96%
Activity (mU/mL), clotting assay, TFPI 0 ng/mL (no inhibitor) [2]: 72.3 mU/mL
Activity (mU/mL), clotting assay, TFPI 0.625 ng/mL [2]: 54.5 mU/mL
Activity (mU/mL), clotting assay, TFPI 6.25 ng/mL [2]: 55.3 mU/mL
Activity (mU/mL), clotting assay, TFPI 62.5 ng/mL [2]: 45 mU/mL
Activity (mU/mL), clotting assay, TFPI 625 ng/mL [2]: 9.5 mU/mL
Activity (mU/mL), clotting assay, TFPI 1250 ng/mL [2]: 2.9 mU/mL
FX activation by NovoSeven (0.7 ng/ml) + 1 U/µl heparin, TFPI 0.002048 ng/ml [2]: 1.33
FX activation by NovoSeven (0.7 ng/ml) + 1 U/µl heparin, TFPI 0.010240 ng/ml [2]: 1.3
FX activation by NovoSeven (0.7 ng/ml) + 1 U/µl heparin, TFPI 0.051200 ng/ml [2]: 1.37
FX activation by NovoSeven (0.7 ng/ml) + 1 U/µl heparin, TFPI 1.28 ng/ml [2]: 1.31
FX activation by NovoSeven (0.7 ng/ml) + 1 U/µl heparin, TFPI 6.40 ng/ml [2]: 1.21
FX activation by NovoSeven (0.7 ng/ml) + 1 U/µl heparin, TFPI 32.00 ng/ml [2]: 1.01
FX activation by NovoSeven (0.7 ng/ml) + 1 U/µl heparin, TFPI 160.00 ng/ml [2]: 0.764
FX activation by NovoSeven (0.7 ng/ml) + 1 U/µl heparin, TFPI 800.00 ng/ml [2]: 0.409
FX activation by NovoSeven (0.7 ng/ml) + 1 U/µl heparin, TFPI 4000.00 ng/ml [2]: 0.241
FX activation by NovoSeven (0.7 ng/ml) + 1 U/µl heparin, TFPI 20000.00 ng/ml [2]: 0.222
FX activation by NovoSeven (0.7 ng/ml), Control [2]: 1.47
FX activation by NovoSeven (4 ng/ml), Control (no TFPI) [2]: 1.66
FX activation by NovoSeven (4 ng/ml), TFPI 0.002048 ng/ml [2]: 1.72
FX activation by NovoSeven (4 ng/ml), TFPI 0.010240 ng/ml [2]: 1.7
FX activation by NovoSeven (4 ng/ml), TFPI 0.051200 ng/ml [2]: 1.73
FX activation by NovoSeven (4 ng/ml), TFPI 0.2560 ng/ml [2]: 1.7
FX activation by NovoSeven (4 ng/ml), TFPI 1.28 ng/ml [2]: 1.66
FX activation by NovoSeven (4 ng/ml), TFPI 6.40 ng/ml [2]: 1.59
FX activation by NovoSeven (4 ng/ml), TFPI 32.00 ng/ml [2]: 1.5
FX activation by NovoSeven (4 ng/ml), TFPI 160.00 ng/ml [2]: 1.34
FX activation by NovoSeven (4 ng/ml), TFPI 800.00 ng/ml [2]: 1.02
FX activation by NovoSeven (4 ng/ml), TFPI 4000.00 ng/ml [2]: 0.406
FX activation by NovoSeven (4 ng/ml), TFPI 20000.00 ng/ml [2]: 0.206
O.D, FX activation by NovoSeven (0.64 ng/ml), Control (no TFPI) [2]: 1.51 O.D
O.D, FX activation by NovoSeven (0.64 ng/ml), TFPI 0.002048 ng/ml [2]: 1.5 O.D
O.D, FX activation by NovoSeven (0.64 ng/ml), TFPI 0.010240 ng/ml [2]: 1.51 O.D
O.D, FX activation by NovoSeven (0.64 ng/ml), TFPI 0.051200 ng/ml [2]: 1.52 O.D
O.D, FX activation by NovoSeven (0.64 ng/ml), TFPI 0.2560 ng/ml [2]: 1.43 O.D
O.D, FX activation by NovoSeven (0.64 ng/ml), TFPI 1.28 ng/ml [2]: 1.47 O.D
O.D, FX activation by NovoSeven (0.64 ng/ml), TFPI 6.40 ng/ml [2]: 1.42 O.D
O.D, FX activation by NovoSeven (0.64 ng/ml), TFPI 32.00 ng/ml [2]: 1.38 O.D
O.D, FX activation by NovoSeven (0.64 ng/ml), TFPI 160.00 ng/ml [2]: 1.34 O.D
O.D, FX activation by NovoSeven (0.64 ng/ml), TFPI 800.00 ng/ml [2]: 1.04 O.D
O.D, FX activation by NovoSeven (0.64 ng/ml), TFPI 4000.00 ng/ml [2]: 0.83 O.D
O.D, FX activation by NovoSeven (0.64 ng/ml), TFPI 20000.00 ng/ml [2]: 0.429 O.D

NovoSeven (commercial recombinant human FVIIa) (from UniProt P08709 61-212; P08709 213-466) (enzyme)
O.D, FX activation (chromogenic), rFVIIa 0.0320 ng/ml [3]: 0.138 O.D
O.D, FX activation (chromogenic), rFVIIa 0.160 ng/ml [3]: 0.178 O.D
O.D, FX activation (chromogenic), rFVIIa 0.80 ng/ml [3]: 0.303 O.D
O.D, FX activation (chromogenic), rFVIIa 4.00 ng/ml [3]: 0.352 O.D
O.D, FX activation (chromogenic), rFVIIa 20.00 ng/ml [3]: 0.365 O.D
O.D, FX activation (chromogenic), rFVIIa 100.00 ng/ml [3]: 0.363 O.D
